Experimental data as given in the supplement of paper PMC7125110.
± gives the standard error. For part of these data: Variants at the floor of the assay were thinned out.

B1: glmS ribozyme (parent)
chain: AUAAAAGCGCCAGAACUACAGAAAUGUAGUUGACGAGGAGGAGGUUUAUCGAAUUUUCGGCGGAUGCCUCCAAA

Columns and labels:
Conditions in all cases: with glucosamine-6-phosphate
glucosamine-6-phosphate [1] = variants of: B1; test: kcat; higher = faster cleavage; RNA array
Summary of the method: (§1)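 Sequenced MiSeq chips were the platform: E. coli RNA polymerase transcribed barcoded ribozyme variants on them in situ, and a hybridised Cy3 probe tracked these at 37 °C. After glucosamine-6-phosphate (40 μM to 10 mM) in HEPES/KCl/Mg(OAc)2 buffer was flowed in, tiles were imaged over ~14 h. Signals normalised to baseline and to non-cleaving reference variants were reduced to per-tile medians and fit to one- or two-exponential decays to obtain kobs. kcat and KM were derived through weighted Michaelis–Menten fits across concentrations.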

glucosamine-6-phosphate [2] = variants of: B1; test: KM; higher = weaker cofactor use; RNA array
Summary of the method: as §1

glucosamine-6-phosphate [3] = variants of: B1; test: self-cleavage kobs at 160 uM GlcN6P; higher = faster cleavage; RNA array
Summary of the method: as §1

glucosamine-6-phosphate [4] = variants of: B1; test: self-cleavage kobs at 640 uM GlcN6P; higher = faster cleavage; RNA array
Summary of the method: as §1

glucosamine-6-phosphate [5] = variants of: B1; test: self-cleavage kobs at 2500 uM GlcN6P; higher = faster cleavage; RNA array
Summary of the method: as §1

glucosamine-6-phosphate [6] = variants of: B1; test: self-cleavage kobs at 10000 uM GlcN6P; higher = faster cleavage; RNA array
Summary of the method: as §1

glucosamine-6-phosphate [7] = variants of: B1; test: self-cleavage kobs at 40 uM GlcN6P; higher = faster cleavage; RNA array
Summary of the method: as §1

Variant | kcat (glucosamine-6-phosphate [1]) [s⁻¹] | KM (glucosamine-6-phosphate [2]) [µM] | self-cleavage kobs at 160 uM GlcN6P (glucosamine-6-phosphate [3]) [s⁻¹] | self-cleavage kobs at 640 uM GlcN6P (glucosamine-6-phosphate [4]) [s⁻¹] | self-cleavage kobs at 2500 uM GlcN6P (glucosamine-6-phosphate [5]) [s⁻¹] | self-cleavage kobs at 10000 uM GlcN6P (glucosamine-6-phosphate [6]) [s⁻¹] | self-cleavage kobs at 40 uM GlcN6P (glucosamine-6-phosphate [7]) [s⁻¹]
U30C C70U | 0.000529 ± 0.00014 | 1890 ± 790 | 6.03e-05 ± 7.8e-06 | 0.000125 ± 1e-05 | 0.000261 ± 2.9e-05 | 0.000536 ± 5.9e-05 | –
U30C C71A | 9.39e-05 ± 4.7e-06 | 1300 ± 180 | – | 3.17e-05 ± 8.4e-06 | 6.1e-05 ± 9.3e-06 | 8.36e-05 ± 1.3e-05 | –
U30C G37A | 2.63e-05 ± 1.2e-06 | 710 ± 290 | – | – | – | 2.44e-05 ± 9e-06 | –
G29C U46C | 9.55e-05 ± 4.5e-06 | 535 ± 120 | – | 5.09e-05 ± 1.5e-05 | 8.67e-05 ± 2.2e-05 | 8.84e-05 ± 1.4e-05 | –
G29C U46G | 0.000315 ± 9.7e-05 | – | – | 7.38e-05 ± 2.1e-05 | 0.000285 ± 7.3e-05 | 0.000234 ± 7.5e-05 | –
U31C A53G C70U | 0.0038 ± 0.00074 | 620 ± 200 | – | 0.00265 ± 0.00055 | 0.00272 ± 0.00079 | 0.00339 ± 0.00081 | 0.000212 ± 4.6e-05
G29U C50U | 1.34e-05 ± 9.1e-07 | 3520 ± 700 | < 1e-05 | – | – | – | –
G29U C50A | < 1e-05 | – | – | – | – | – | < 1e-05
G29C C67A | 0.000293 ± 7.2e-05 | – | 5.79e-05 ± 1.3e-05 | 0.000128 ± 1.9e-05 | 0.000163 ± 3.2e-05 | 0.000363 ± 5.2e-05 | –
G29C G41U | 5.56e-05 ± 4e-07 | 2090 ± 57 | – | – | 3.01e-05 ± 1.1e-05 | 4.6e-05 ± 7.7e-06 | –
G29C U54C | 0.00154 ± 0.00063 | – | 0.000153 ± 2.5e-05 | 0.000301 ± 7.9e-05 | 0.000773 ± 0.00014 | 0.0019 ± 0.00032 | 6.42e-05 ± 1.4e-05
U30C | 0.000469 ± 2.4e-05 | 1950 ± 180 | 4.18e-05 ± 1.9e-06 | 0.000113 ± 2e-06 | 0.000759 ± 0.00027 | 0.000395 ± 6.5e-06 | –
U30A | 0.0142 ± 0.0014 | 2550 ± 310 | 0.000758 ± 6.8e-05 | 0.00244 ± 0.00012 | 0.00727 ± 0.00029 | 0.0114 ± 0.00039 | 0.000227 ± 5e-06
U30G | 0.0156 ± 0.0046 | 2400 ± 840 | 0.000809 ± 3e-05 | 0.00344 ± 0.00013 | 0.00622 ± 0.00028 | 0.0157 ± 0.00058 | 0.000284 ± 5.6e-06
U30C A64G | 0.000351 ± 3.3e-05 | 1100 ± 200 | 4.88e-05 ± 1.1e-05 | 0.000122 ± 1.4e-05 | 0.000267 ± 3e-05 | 0.000293 ± 4.9e-05 | –
